This data set in a line: label from the status in PepcDB records.

“MESTKSYDIPILRNVSRSFSVHYRDYLQRCGIFVPKEGNSSGPDAYVVFHNGQTRYVVGFSFKFYHKSEFSKRNIEEEAKKFFKGVVSVLNDESFSSVQLRFQFVMVVCTSYGRSVVFSSEEQNIVEDASYLVTEHSSGSTLNESSRSCLQLVIVSQRNLEMYLGRDNVETLRKIGEASREEFSKDFSVWCETVFESMSNEYVSPLEQSNVTLRVARNIRPRTNEENRMQIEELQTAMKVERSVAASSSLSSSFDWNTFLREYCGLSEEDVAYCLPKVEDIDMDELPAVTKEILRDLGIDKPALRLKIRSSIRSYLANER”: the protein production result is reported as “not failed”.
Regarding “MESTLSASNMQDPSSSPLEKCLGSANGNGDLDSEEGSSLEETGFNWGEYLEETGASAAPHTSFKHVEISIQSNFQPGMKLEVANKNNPDTYWVATIITTCGQLLLLRYCGYGEDRRADFWCDVVIADLHPVGWCTQNNKVLMPPDAIKEKYTDWTEFLIRDLTGSRTAPANLLEGPLRGKGPIDLITVGSLIELQDSQNPFQYWIVSVIENVGGRLRLRYVGLEDTESYDQWLFYLDYRLRPVGWCQENKYRMDPPSEIYPLKMASEWKCTLEKSLIDAAKFPLPMEVFKDHADLRSHFFTVGMKLETVNMCEPFYISPASVTKVFNNHFFQVTIDDLRPEPSKLSMLCHADSLGILPVQWCLKNGVSLTPPKGYSGQDFDWADYHKQHGAQEAPPFCFRNTSFSRGFTKNMKLEAVNPRNPGELCVASVVSVKGRLMWLHLEGLQTPVPEVIVDVESMDIFPVGWCEANSYPLTAPHKTVSQKKRKIAVVQPEKQLPPTVPVKKIPHDLCLFPHLDTTGTVNGKYCCPQLFINHRCFSGPYLNKGRIAELPQSVGPGKCVLVLKEVLSMIINAAYKPGRVLRELQLVEDPHWNFQEETLKAKYRGKTYRAVVKIVRTSDQVANFCRRVCAKLECCPNLFSPVLISENCPENCSIHTKTKYTYYYGKRKKISKPPIGESNPDSGHPKPARRRKRRKSIFVQKKRRSSAVDFTAGSGEESEEEDADAMDDDTASEETGSELRDDQTDTSSAEVPSARPRRAVTLRSGSEPVRRPPPERTRRGRGAPAASSAEEGEKCPPTKPEGTEDTKQEEEERLVLESNPLEWTVTDVVRFIKLTDCAPLAKIFQEQDIDGQALLLLTLPTVQECMELKLGPAIKLCHQIERVKVAFYAQYAN”, the protein production result is reported as “failed”.
Take “MESWKVNLISVWFGCFFTGLAISQILPFLPLYVSQLGVTSHEALSMWSGLTFSVTFLVSAIVSPMWGSLADRKGRKLMLLRASLGMAIAILLQAFATNVWQLFILRAIMGLTSGYIPNAMALVASQVPRERSGWALSTLSTAQISGVIGGPLLGGFLADHVGLRMVFFITAILLTISFLVTLFLIKEGVRPQVSKSERLTGKQVFASLPYPGLVISLFFTTLVIQLCNGSIGPILALFIKSMAPDSNNIAFLAGMIAAVPGVSALISAPRLGKLGDRIGTSRILLATLCCAVVMFFAMSFVTTPLQLGTLRFLLGFADGAMLPAVQTLLLKYSSDSVTGRIFGYNQSFMYLGNVAGPLIGASVSAMAGFRWVFIATAIIVFINLWQLAWMLRQTRRANA”: the protein production entry was “not failed”.
The entry for “METESEQNSNSTNGSSSSGGSSRPQIAQMSLYERQAVQALQALQRQPNAAQYFHQFMLQQQLSNAQLHSLAAVQQATIAASRQASSPNTSTTQQQTTTTQASINLATTSAAQLISRSQSVSSPSATTLTQSVLLGNTTSPPLNQSQAQMYLRPQLGNLLQVNRTLGRNVPLASQLILMPNGAVAAVQQEVPSAQSPGVHADADQVQNLAVRNQQASAQGPQMQGSTQKAIPPGASPVSSLSQASSQALAVAQASSGATNQSLNLSQAGGGSGNSIPGSMGPGGGGQAHGGLGQLPSSGMGGGSCPRKGTGVVQPLPAAQTVTVSQGSQTEAESAAAKKAEADGSGQQNVGMNLTRTATPAPSQTLISSATYTQIQPHSLIQQQQQIHLQQKQVVIQQQIAIHHQQQFQHRQSQLLHTATHLQLAQQQQQQQQQQQQQQQPQATTLTAPQPPQVPPTQQVPPSQSQQQAQTLVVQPMLQSSPLSLPPDAAPKPPIPIQSKPPVAPIKPPQLGAAKMSAAQQPPPHIPVQVVGTRQPGTAQAQALGLAQLAAAVPTSRGMPGTVQSGQAHLASSPPSSQAPGALQECPPTLAPGMTLAPVQGTAHVVKGGATTSSPVVAQVPAAFYMQSVHLPGKPQTLAVKRKADSEEERDDVSTLGSMLPAKASPVAESPKVMDEKSSLGEKAESVANVNANTPSSELVALTPAPSVPPPTLAMVSRQMGDSKPPQAIVKPQILTHIIEGFVIQEGAEPFPVGCSQLLKESEKPLQTGLPTGLTENQSGGPLGVDSPSAELDKKANLLKCEYCGKYAPAEQFRGSKRFCSMTCAKRYNVSCSHQFRLKRKKMKEFQEANYARVRRRGPRRSSSDIARAKIQGKCHRGQEDSSRGSDNSSYDEALSPTSPGPLSVRAGHGERDLGNPNTAPPTPELHGINPVFLSSNPSRWSVEEVYEFIASLQGCQEIAEEFRSQEIDGQALLLLKEEHLMSAMNIKLGPALKICAKINVLKET” is “failed”.
The same measure for “METISKEFKSKVSLFWEAFNKNDFESAKTQCNQMKKSFSDEANPHYLLGIIYFEEKRFDKSIIELKLALKKDSERKLGGYIYYVIGLNYSKNTFSNMENLNSIYDIELARNAFESALTYENFNESNITELSQIYRNKFKLIQLFQKGLKKFPTKTSFYIKLSAIYKKNGNISERESLLLDAKENIKSFHILFELGELYLEKSQYKCSREHFYLAEKLREGSGLEFAVQVMIGNTHVNEGNPNLANEYYINAFHKEKNSCNFWFGLFGILASSAETSFADLKNILEEMEVTSQLTIEEWYGEMPLYYGSNYFSFDFPIDEKHLINRLNLFKKQQRDTDILGKIELIKASLYEFSSEDTKYIKCLKSAINYFSQHSYDFIFNKLAARYDYLLSHLQEEGKSVNTLINEIVDYLEDDYSFRKEYIEYLPTIVTILFEEKKHKKIIEIKNIFTEKQIDKADIWFHVGYAFNELGRPKESKYAYECNIKINGECTSTHNNLALLLENEGKNSDAVAMFQKALMINVDDEKLQSNLQNALDKQKAKSLLTYKNEAIDKSFVGAVGLLKSETFFSMETLLNFIDRSKKENSFNDGILSIQDEMFPDLLRTNLVKSLELKNDWLIKNYIALTEEIDEYGIPYYQVNPYLEPEIVKLKRMTVESELPKEWTEGIGNITIFKLDELDYFSIKHKISKINKKFKPLVMRDFNELIFNHLVGNRKAVVVLSGSFVELLLTYYCEKKRIKAVEYTCKDSAKPKKKKLYDCVLFDLISFIEEKRIFGNDFFLLSNLSRVYRNFIHPGVELKNSLDKSKSDLCFISSLEILKKII”: “failed”; for “METLHPFSHLPISDHRFVVQEMVSLHSSSSGSWTKEENKMFERALAIYAEDSPDRWFKVASMIPGKTVFDVMKQYSKLEEDVFDIEAGRVPIPGYPAASSPLGFDTDMCRKRPSGARGSDQDRKKGVPWTEEEHRRFLLGLLKYGKGDWRNISRNFVVSKTPTQVASHAQKYYQRQLSGAKDKRRPSIHDITTGNLLNANLNRSFSDHRDILPDLGFIDKDDTEEGVIFMGQNLSSENLFSPSPTSFEAAINFAGENVFSAGA”: “failed”; for “METLKKNWTKFILSFIMLVLAIICVYTLSTYKSSEKNTGFLKMGGGFNKSFNSSSRKLNGQPNMKGAPAQHPSNSNANSKSAPPNNFNHNVSKPQRMMGGGEFNSSSKYSSEVLIYSLGFFAIVICAYLAIVKKKIKISTENRGFILAAFLVIGFLFRIIVGLLITGYVTDIGLYKQWALTAAKNLAAVYTNGSVDYPPVYLYVLSIIGKIASSSFMSNYSTLLIKLPSIIADIFSAYFVYRLSIKRFSYETSFALTLFYLFNPAILINSTLWGQADSFFTLLVILAVYFISEDKIVPSSIFFALSVLMKPQGIIFLPLVLFWYIKNKNLKSIFKSIASGFITTIIVLAPFSISKGNITWIFDLYTREVSEYPYASNNAFNFYSLIGANRVKDSNTMFIFSYHTWGMLFIVLITLISGFFYLKSKNKYASTLAALIQVVGVFNFSVGMHERYMFTAVLASILAYIYFKDKRLLLISLLLSFINYANMHTILFNRLNMNVNSSSSMLIVFISLLNITTFVYLIKVCFDLCLKKDIKVTEDIQNTL”: “failed”.
The same measure for “METLSNSILTVQIAEHGAELQSIKKDGKEYLWQGDAKFWGRRSPVLFPIVGRVWNNKYRHAGNTYEIGQHGFARDMDFKLTYKEDKGAVYWLESTPDTLGKFPFPFRLLVGYLLEENKITVKWRVENLGAMDMYFQIGAHPAFYFPEFDAATKDRGFFVFDRKSDLEYIMPTEKGCVSPERHVLKLNKEGLMPIDIHTFDCDTYIFDNKQLKKITLLDKKKKPHISLEFNSPLVALWSPTKTHPDCPFVCIEPWYGRCDSVGYSGELKDREWIQKLEPKETFDVEYKIIIE”: “failed”; for “METLSVIHTVANRLRELNPDMDIHISSTDAKVYIPTGQQVTVLIHYCGSVFAEPENTDATVQKQLIRISATVIVPQISDAINALDRLRRSLGGIELPDCDRPLWLESEKYIGDAANFCRYALDMTASTLFIAEQESKDSPLLTIVNYEEIQ”: “not failed”.
For the sequence “METMFDTLLQLPLFQGLCHEDFTSILDKVKLHFIKHKAGETIIKSGNPCTQLCFLLKGEISIVTNAKENIYTVIEQIEAPYLIEPQSLFGMNTNYASSYVAHTEVHTVCISKAFVLSDLFRYDIFRLNYMNIVSNRAQNLYSRLWDEPTLDLKSKIIRFFLSHCEKPQGEKTFKVKMDDLARCLDDTRLNISKTLNELQDNGLIELHRKEILIPDAQKLL”, the protein production entry was “not failed”.
The entry for “METTPVTSCTIIDATDRSIRQTLGETSTLARLIWVDAGLASPPLCSGLARCGRCRVRITEAAPAPHEDDREFFSAEDISAGWRLACRHAPAHGMVVHVPLPVMPHRHASRPKHPGPFRLAVDLGTTSLQWSLLAPDGTVAAQGSETNPQMGAGSDVMSRIAMARSDKGRGRLRELVLQALRRIVADVEGTPATADAVPPAGSGDEPTTACGYESRVEELCVAGNTAMTAILADESVEGLASAPYRLEMRGGTALALPGLPPAWIPPLPAPFVGGDLSAGYLAVLTDHAPAFPFVLADLGTNGEFVLALSPERTLVTSVALGPALEGIGLTFGTVAQRGAITSFTLTPGGLVPYVLDGGEADGISGTGYISLVHALLRAGLLDVDGRFIQSPSSPLAARMARSIVSHRGEPCLPLARGLYLAARDIEEILKVKAAFSLAFERLLATAQMPSHALSGIHLAGALGQHALPADLEGLGFIPPGSGGRTRAVGNTSLRGAELLLTSPPLRDTLNTWREGCTVVDLTAAPDFSAAFLRHMHFHFLEHHHHHH” is “failed”.
The entry for “METTQKDELSSFLSVLPPVDFCCVYGSTLHPNNQDKSKMVDYILGVSDPIKWHSANLKMNSDHYASWMVHLGGARLITNVADKVGVGVHFNPFVNWNDRKLKYGVVRMHDLVQDILDWKRFYLSGRLQKPVHMLVDNLDIEDVNSVNKRAAISAALLLLPSKFTEEDLYAKICSLSYMGDLRMFFAEDTNKVNKIVKGQFDLFQSMYKPFLEECETKNLLRFSSAEASHTKLVQDSSLSATRSLVSSLPASVRSQMGKSLGEKKFVSETGRVMGEVCISSREEAAKCMEKVMRRRVMVSSGRQAVSGFLAAGAINATMYLSQKMRKAWNSRA” is “failed”; for “METYDVLVVGGGPGGSTAARYAAKYGLKTLMIEKRPEIGSPVRCGEGLSKGILNEADIKADRSFIANEVKGARIYGPSEKRPIILQSEKAGNEVGYVLERDKFDKHLAALAAKAGADVWVKSPALGVIKENGKVAGAKIRHNNEIVDVRAKMVIAADGFESEFGRWAGLKSVILARNDIISALQYRMINVDVDPDYTDFYLGSIAPAGYIWVFPKGEGMANVGIGSSINWIHNRFELKNYLDRFIENHPGLKKGQDIQLVTGGVSVSKVKMPITMPGLMLVGDAARLIDPITGGGIANAIVSGMYAAQVTKEAIESNDYSPQMMQKYEKLIKERFERKHLRNWVAKEKLAMLSDDTLDKLVDIVSEQVLTTISVEAILKAIAEKYPEVVKELEDLI” it is “not failed”.
The same measure for “METYPITVGGVTRHVPLIEPLPGRRIPLVEFLGDPEFTRAAAEALRPLVPKEAEILFTTETSPIPLTHVLAEALGLPYVVARRRRRPYMEDPIIQEVQTLTLGVGEVLWLDRRFAEKLLNQRVVLVSDVVASGETMRAMEKMVLRAGGHVVARLAVFRQGTPGLAVDTVAELPVL”: “not failed”.

Source of the values: a protein production outcome set (Wang et al. 2014).
